This is an account of results in PMC5155031.

What all share (test): dose-dependent binding with Scatchard plot analysis
For assay [1], the target named is mIgCLL5-2, CLL-derived monoclonal Igγ1 antibody of clonotype CLL5-2.
Assay [2] deals with mIgCLL6-1, CLL-derived monoclonal Igγ1 antibody of clonotype CLL6-1.
For assay [3], the target named is mIgCLL3-1, CLL-derived monoclonal Igγ1 antibody of clonotype CLL3.
Assay [4] addresses mIgCLL2-1, CLL-derived monoclonal Igγ1 antibody of clonotype CLL2.
In assay [5] the target is mIgCLL6-2, CLL-derived monoclonal Igγ1 antibody of clonotype CLL6-2.
In assay [6] the target is mIgCLL3-2, CLL-derived monoclonal Igγ1 antibody of clonotype CLL3.
For assay [7], the target named is mIgCLL5-1, CLL-derived monoclonal Igγ1 antibody of clonotype CLL5-1.
Assay [8] concerns the target mIgCLL2-2, CLL-derived monoclonal Igγ1 antibody of clonotype CLL2.

CPPFTNYEC [pCLL5-2 mimotope] displayed a Kd in assay [1] of 7.32 nM.
Consider CNQDWHKKC [pCLL6-1 mimotope], for which, in assay [2], the Kd is 57.5 nM.
As to CPPQSVTEC [pCLL3-1 mimotope], the Kd in assay [3] worked out at 22.1 nM.
In assay [4], CNTYSVSLC [pCLL2-1 mimotope] had a Kd of 10.8 nM.
In turn, CTTVIPERC [pCLL6-2 mimotope] yielded a Kd in assay [5] of 22.7 nM.
In assay [6], CDVWHSAYC [pCLL3-2 mimotope] showed a Kd of 5.64 nM.
Regarding CFSDDEWWC [pCLL5-1 mimotope], the Kd in assay [7] turned out to be 7.08 nM.
Take CKSYSVSLC [pCLL2-2 mimotope]: the Kd in assay [8] turned out to be 7.57 nM.
